From PMC12501291, “Cancer-associated fibroblasts expressing FSTL3 promote vasculogenic mimicry formation and drive colon cancer malignancy” (Cell Death & Disease, 2025) come the findings set out here.

The target in the test is T1, FSTL3-FC (biotin) (UniProt O95633, biotin).
T1 construct: FSTL3 gene fused with a human Fc fragment in pCDNA3.4; also called biotinylated FSTL3-FC; source: 293F cells, transfected, purified (Protein A), biotinylated, ultrafiltration; made by SGE BIOTECH
Nature of the test: ELISA; sandwich ELISA with biotinylated FSTL3-FC, aFSTL3 and Activin A-mFC; in vitro. As to conditions: both partners purified. For orientation: In an ELISA, binding on a coated surface is turned into a signal by an enzyme label.

T1 sequence (O95633 27-263): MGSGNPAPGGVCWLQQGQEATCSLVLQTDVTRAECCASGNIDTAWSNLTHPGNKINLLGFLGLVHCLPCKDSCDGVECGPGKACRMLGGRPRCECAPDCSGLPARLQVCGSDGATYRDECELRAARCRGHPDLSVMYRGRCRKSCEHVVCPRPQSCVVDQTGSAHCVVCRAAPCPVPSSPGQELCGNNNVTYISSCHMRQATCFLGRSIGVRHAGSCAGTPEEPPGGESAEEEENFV

B1: FSTL3-targeting antibodies (aFSTL3) (antibody, V domains shown)
VH: EVQLQQSAAELARPGASVKMSCKASGYSFTTYTMHWVKQRPGQGLEWIGYIHPSSGYTDHIQKFKDKTILTADKSSSTAYMQLNSLTSEDSAVYYCARLDYGYWGQGTTLTVSS
VL: DILMTQTPLSLPVSLGDQASISCRSSQSIVHSNGNTYLEWYLQKPGQSPKLLIYKVSNRFSGVPDRFTGSGSGTDFTLKISRVEAADLGVYYCFQSSHIPPTFGGGTKLEIK
notes: cloned into the PTT5-human IgG1 CH vector; cloned into the PTT5-human kappa CL vector; Human IgG1 CH, human kappa CL; source: 293F cells, transfected, purified (Protein A); made by SGE BIOTECH
Consider B1, for which the binding result is “binds”.
